Measurements from patent publication US20210388087A1 (Chugai, published 2021).
Positions count from the first letter of the chain named.

B1: CE115HA000 Y55G (antibody, human IgG1, kappa, L234A L235A, N297A, name in Kabat numbering)
heavy: QVQLVESGGGVVQPGRSLRLSCAASGFTFSNAWMHWVRQAPGKGLEWVAQIKAKSNNGATYYAESVKGRFTISRDDSKNSLYLQMNSLKTEDTAVYYCRYVHYGAYYGVDAWGQGTTVTVSSASTKGPSVFPLAPSSKSTSGGTAALGCLVKDYFPEPVTVSWNSGALTSGVHTFPAVLQSSGLYSLSSVVTVPSSSLGTQTYICNVNHKPSNTKVDKKVEPKSCDKTHTCPPCPAPEAAGGPSVFLFPPKPKDTLMISRTPEVTCVVVDVSHEDPEVKFNWYVDGVEVHNAKTKPREEQYASTYRVVSVLTVLHQDWLNGKEYKCKVSNKALPAPIEKTISKAKGQPREPQVYTLPPSRCELTKNQVSLSCAVKGFYPSDIAVEWESNGQPENNYKTTPPVLDSDGSFFLVSKLTVDKSRWQQGNVFSCSVMHEALHNHYTQKSLSLSPDYKDDDDK
chain: EPKSSDKTHTCPPCPAPELLGGPSVFLFPPKPKDTLMISRTPEVTCVVVDVSHEDPEVKFNWYVDGVEVHNAKTKPREEQYNSTYRVVSVLTVLHQDWLNGKEYKCKVSNKALPAPIEKTISKAKGQPREPQVCTLPPSRDELTKNQVSLWCLVKGFYPSDIAVEWESNGQPENNYKTTPPVLDSDGSFFLYSKLTVDKSRWQQGNVFSCSVMHEALHNRYTQKSLSLSP
light: DIVMTQSPLSLPVTPGEPASISCRSSQSLVHSNRNTYLHWYQQKPGQAPRLLIYKVSNRFSGVPDRFSGSGSGTDFTLKISRVEAEDVGVYYCGQGTQVPYTFGQGTKLEIKRTVAAPSVFIFPPSDEQLKSGTASVVCLLNNFYPREAKVQWKVDNALQSGNSQESVTEQDSKDSTYSLSSTLTLSKADYEKHKVYACEVTHQGLSSPVTKSFNRGEC
notes: one-arm antibody
B2: CE115HA000 Y59D (antibody, human IgG1, kappa, L234A L235A, N297A, name in Kabat numbering)
heavy: B1 heavy with G58Y, Y62D
chain: B1 chain
light: B1 light
notes: one-arm antibody
B3: CE115HA000 Y97S (antibody, human IgG1, kappa, L234A L235A, N297A, name in Kabat numbering)
heavy: B1 heavy with G58Y, Y103S
chain: B1 chain
light: B1 light
notes: one-arm antibody
B4: CE115HA000 Y58L (antibody, human IgG1, kappa, L234A L235A, N297A, name in Kabat numbering)
heavy: B1 heavy with G58Y, Y61L
chain: B1 chain
light: B1 light
notes: one-arm antibody
B5: CE115HA000 Y100K (antibody, human IgG1, kappa, L234A L235A, N297A, name in Kabat numbering)
heavy: B1 heavy with G58Y, Y106K
chain: B1 chain
light: B1 light
notes: one-arm antibody
B6: CE115HA000 Y100A (antibody)
heavy: B1 heavy with G58Y, Y106A
Fc: B1 chain
light: B1 light
notes: one-arm antibody
B7: CE115HA000 Y58A (antibody, human IgG1, kappa, L234A L235A, N297A, name in Kabat numbering)
heavy: B1 heavy with G58Y, Y61A
chain: B1 chain
light: B1 light
notes: one-arm antibody
B8: CE115HA000 Y58K (antibody, human IgG1, kappa, L234A L235A, N297A, name in Kabat numbering)
heavy: B1 heavy with G58Y, Y61K
chain: B1 chain
light: B1 light
notes: one-arm antibody
B9: CE115HA000 Y58S (antibody, human IgG1, kappa, L234A L235A, N297A, name in Kabat numbering)
heavy: B1 heavy with G58Y, Y61S
chain: B1 chain
light: B1 light
notes: one-arm antibody
B10: CE115HA000 Y59A (antibody, human IgG1, kappa, L234A L235A, N297A, name in Kabat numbering)
heavy: B1 heavy with G58Y, Y62A
chain: B1 chain
light: B1 light
notes: one-arm antibody
B11: CE115HA000 Y58D (antibody, human IgG1, kappa, L234A L235A, N297A, name in Kabat numbering)
heavy: B1 heavy with G58Y, Y61D
chain: B1 chain
light: B1 light
notes: one-arm antibody
B12: CE115HA000 Y100G (antibody, human IgG1, kappa, L234A L235A, N297A, name in Kabat numbering)
heavy: B1 heavy with G58Y, Y106G
chain: B1 chain
light: B1 light
notes: one-arm antibody
B13: CE115HA000 Y97P (antibody, human IgG1, kappa, L234A L235A, N297A, name in Kabat numbering)
heavy: B1 heavy with G58Y, Y103P
chain: B1 chain
light: B1 light
notes: one-arm antibody
B14: CE115HA000 Y97G (antibody, human IgG1, kappa, L234A L235A, N297A, name in Kabat numbering)
heavy: B1 heavy with G58Y, Y103G
chain: B1 chain
light: B1 light
notes: one-arm antibody
B15: CE115HA000 Y97R (antibody, human IgG1, kappa, L234A L235A, N297A, name in Kabat numbering)
heavy: B1 heavy with G58Y, Y103R
chain: B1 chain
light: B1 light
notes: one-arm antibody
B16: CE115HA000 Y59S (antibody, human IgG1, kappa, L234A L235A, N297A, name in Kabat numbering)
heavy: B1 heavy with G58Y, Y62S
chain: B1 chain
light: B1 light
notes: one-arm antibody
B17: CE115HA000 Y100D (antibody, human IgG1, kappa, L234A L235A, N297A, name in Kabat numbering)
heavy: B1 heavy with G58Y, Y106D
chain: B1 chain
light: B1 light
notes: one-arm antibody
B18: CE115HA000 Y59E (antibody, human IgG1, kappa, L234A L235A, N297A, name in Kabat numbering)
heavy: B1 heavy with G58Y, Y62E
chain: B1 chain
light: B1 light
notes: one-arm antibody
B19: CE115HA000 Y58N (antibody, human IgG1, kappa, L234A L235A, N297A, name in Kabat numbering)
heavy: B1 heavy with G58Y, Y61N
chain: B1 chain
light: B1 light
notes: one-arm antibody
B20: CE115HA000 Y97A (antibody, human IgG1, kappa, L234A L235A, N297A, name in Kabat numbering)
heavy: B1 heavy with G58Y, Y103A
chain: B1 chain
light: B1 light
notes: one-arm antibody
B21: CE115HA000 Y97D (antibody, human IgG1, kappa, L234A L235A, N297A, name in Kabat numbering)
heavy: B1 heavy with G58Y, Y103D
chain: B1 chain
light: B1 light
notes: one-arm antibody
B22: CE115HA000 Y58Q (antibody, human IgG1, kappa, L234A L235A, N297A, name in Kabat numbering)
heavy: B1 heavy with G58Y, Y61Q
chain: B1 chain
light: B1 light
notes: one-arm antibody
B23: CE115HA000 Y55S (antibody, human IgG1, kappa, L234A L235A, N297A, name in Kabat numbering)
heavy: B1 heavy with G58S
chain: B1 chain
light: B1 light
notes: one-arm antibody

Target: T1, CD3 epsilon homodimer protein (UniProt P07766 23-126)
T1 construct: also called CD3 (CD3 epsilon)
Experiment: SPR, CD3 epsilon homodimer on chip, one-arm antibody as analyte;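 also: surface plasmon resonance at 25 °C with CD3 epsilon homodimer amine-coupled to a CM4 sensor chip, antibody injected as analyte, HBS-EP+ as running buffer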

T1 sequence (P07766 23-126): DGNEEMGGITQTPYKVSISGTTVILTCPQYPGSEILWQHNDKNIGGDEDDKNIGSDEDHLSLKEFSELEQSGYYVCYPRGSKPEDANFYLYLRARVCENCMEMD

In order of falling “KD ratio (KD of CE115HA000/KD of altered form)” value:
1. B14  47200
2. B20  41300
3. B15  23200
4. B13  12400
5. B3  1180
6. B21  65.7
7. B23  5.65
8. B11  4.81
9. B19  1.86
10. B22  1.24
11. B9  1.22
12. B4  1.21
13. B7  1.06
14. B1  0.99
15. B12  0.97
16. B5  0.93
17. B6  0.92
18. B16  0.79
19. B10  0.74
20. B2  0.66
21. B8  0.66
22. B17  0.63
23. B18  0.61
